Laboratory results: PMC9010301

Target: Rad24-RFC clamp loader;9-1-1 clamp (Ddc1-Mec3-Rad17) (Saccharomyces cerevisiae;Saccharomyces …, UniProt P32641;P40348;P38629;P40339;P38251;Q08949;Q02574;P48581 …, |)
Assay: cryo-EM structure; closed 9-1-1 state; 0.5 mM ATPgS, 5 mM Mg acetate; 4 ATPgS and 1 ADP bound; 3.2 A; 1.8 uM Rad24-RFC, 2.2 uM 9-1-1, 2.7 uM DNA, 0.5 mM ATPgS, 5 mM Mg acetate; 9-1-1 + DNA 10 min at 30 C, then with loader on ice water 30 min (double-tailed) or 3

B1: double-tailed DNA (3'- and 5'-recessed ends) (dsDNA)
DNA 1: GCAGACACTACGAGTACATA
DNA 2: TTTTTTTTTTTATGTACTCGTAGTGTCTGCTTTTTTTTTT
modifications: 5'-OH
binding result: binds
